According to article PMC2596764 (Nature immunology, 2008):
Like-named read-outs stand apart in the source and are kept apart here. Non-standard residues stand in square brackets, D forms with d. Residues, ends and D or L forms follow the SMILES beside them. No end group written: not given here. pS = N[C@@H](COP(=O)(O)O)C(=O)O

How the values were obtained:
[1] = biological target: HLA-A2 (Homo sapiens, UniProt P04439, D140Y/D185E/D98H/E176V/E277Q/G131W/G231S/I119V/I121R/I166T/I218V/L300P/L318F/N151K/N90K/P208A/P217A/Q86G/Q94H/R138H/R169H/T345S); test: Competitive peptide binding assay to purified HLA-A2
[2] = biological target: HLA-A2-R65A (Ala substitution for Arg65) (Homo sapiens, UniProt P04439, D140Y/D185E/D98H/E176V/E277Q/G131W/G231S/I119V/I121R/I166T/I218V/N151K/N90K/P208A/P217A/Q86G/Q94H/R138H/R169H); test: Competitive peptide binding assay to mutant HLA-A2-R65A
[3] = biological target: HLA-A*0201 (HLA-A2) heavy chain refolded with β2-microglobulin; test: radioligand binding
[4] = biological target: HLA-A2-R65A heavy chain refolded with β2-microglobulin; test: radioligand binding
[5] = biological target: HLA-A*0201 (HLA-A2) heavy chain refolded with β2-microglobulin; test: radioligand binding; remark: listed apart in the source
[6] = biological target: HLA-A2-R65A heavy chain refolded with β2-microglobulin; test: radioligand binding; remark: listed apart in the source

| Molecule | IC50 [1] [µM] | IC50 [5] [µM] | further results |
| --- | --- | --- | --- |
| CC[C@H](C)[C@H](NC(=O)[C@H](CO)NC(=O)[C@H](C)NC(=O)[C@H](CCC(N)=O)NC(=O)[C@H](C)N)C(=O)N[C@@H](CCC(=O)O)C(=O)N[C@@H](CC(C)C)C(=O)N1CCC[C@H]1C(=O)N[C@@H](CO)C(=O)N[C@@H](CCSC)C(=O)O | 1.18 | – | IC50 [2]: 1.06 µM |
| CC(C)C[C@H](NC(=O)CN)C(=O)N[C@@H](CC(C)C)C(=O)NCC(=O)N[C@@H](COP(=O)(O)O)C(=O)N1CCC[C@H]1C(=O)N[C@H](C(=O)N[C@@H](CCCNC(=N)N)C(=O)N[C@@H](C)C(=O)O)C(C)C [GLLGpSPVRA] (H-GLLG[pS]PVRA-OH) | 0.169 | – | – |
| CC[C@H](C)[C@H](NC(=O)[C@H](CO)NC(=O)[C@H](CC(C)C)NC(=O)[C@H](COP(=O)(O)O)NC(=O)[C@H](C)NC(=O)[C@H](CCC(N)=O)NC(=O)[C@@H](N)CCCNC(=N)N)C(=O)N[C@@H](CO)C(=O)N[C@H](C(=O)O)C(C)C [RQApSLSISV] (H-RQA[pS]LSISV-OH) | 0.0385 | – | – |
| CC[C@H](C)[C@H](NC(=O)[C@H](CC(C)C)NC(=O)[C@@H](N)CCCCN)C(=O)N[C@@H](CC(=O)O)C(=O)N[C@@H](CCCNC(=N)N)C(=O)N[C@H](C(=O)N[C@@H](CCC(=O)O)C(=O)N[C@@H](COP(=O)(O)O)C(=O)N[C@@H](CC(C)C)C(=O)O)[C@@H](C)O [KLIDRTEpSL] (H-KLIDRTE[pS]L-OH) | 0.0624 | – | – |
| CC[C@H](C)[C@H](NC(=O)[C@H](CO)NC(=O)[C@H](C)NC(=O)[C@H](CCC(N)=O)NC(=O)[C@@H](N)CCCNC(=N)N)C(=O)N[C@@H](CCC(=O)O)C(=O)N[C@@H](CC(C)C)C(=O)N1CCC[C@H]1C(=O)N[C@@H](CO)C(=O)N[C@@H](CCSC)C(=O)O (H-RQASIELPSM-OH) | 1.77 | – | IC50 [2]: 2.14 µM |
| CC[C@H](C)[C@H](NC(=O)[C@H](CO)NC(=O)[C@H](C)NC(=O)[C@H](CC(C)C)NC(=O)[C@@H](N)CCCNC(=N)N)C(=O)N[C@@H](CCC(=O)O)C(=O)N[C@@H](CC(C)C)C(=O)N1CCC[C@H]1C(=O)N[C@@H](CO)C(=O)N[C@H](C(=O)O)C(C)C (H-RLASIELPSV-OH) | 0.0009 | – | – |
| CC[C@H](C)[C@H](NC(=O)[C@H](COP(=O)(O)O)NC(=O)[C@H](C)NC(=O)[C@H](CCC(N)=O)NC(=O)[C@H](C)N)C(=O)N[C@@H](CCC(=O)O)C(=O)N[C@@H](CC(C)C)C(=O)N1CCC[C@H]1C(=O)N[C@@H](CO)C(=O)N[C@@H](CCSC)C(=O)O [AQApSIELPSM] | 0.0587 | – | IC50 [2]: 0.972 µM |
| CC[C@H](C)[C@H](NC(=O)[C@H](COP(=O)(O)O)NC(=O)[C@H](C)NC(=O)[C@H](CCC(N)=O)NC(=O)[C@@H](N)CCCNC(=N)N)C(=O)N[C@@H](CCC(=O)O)C(=O)N[C@@H](CC(C)C)C(=O)N1CCC[C@H]1C(=O)N[C@@H](CO)C(=O)N[C@@H](CCSC)C(=O)O [RQApSIELPSM] (H-RQA[pS]IELPSM-OH) | 0.0112 | – | IC50 [2]: 0.02 µM |
| CSCC[C@H](NC(=O)[C@H](CC(=O)O)NC(=O)[C@H](CC(C)C)NC(=O)[C@H](Cc1ccccc1)NC(=O)[C@H](COP(=O)(O)O)NC(=O)[C@H](CC(=O)O)NC(=O)[C@H](CCSC)NC(=O)[C@@H](N)CCCCN)C(=O)N[C@@H](CCC(N)=O)C(=O)N[C@@H](CC(C)C)C(=O)O [KMDpSFLDMQL] (H-KMD[pS]FLDMQL-OH) | 0.0034 | – | – |
| CC(C)C[C@H](NC(=O)CNC(=O)[C@H](Cc1ccc(O)cc1)NC(=O)[C@@H](NC(=O)[C@@H]1CCCN1C(=O)[C@H](COP(=O)(O)O)NC(=O)[C@H](Cc1ccccc1)NC(=O)[C@@H](NC(=O)[C@@H](N)CCCNC(=N)N)[C@@H](C)O)[C@@H](C)O)C(=O)O [RTFpSPTYGL] (H-RTF[pS]PTYGL-OH) | 0.0325 | – | – |
| AQApSIELPSM (peptide) | – | – | IC50 [3]: 0.0587 µM; IC50 [4]: 0.972 µM |
| RQA[pS]LSISV [RQApSLSISV] | – | 0.0385 | – |
| KLIDRTE[pS]L [KLIDRTEpSL] | – | 0.0624 | – |
| RQA[pS]IELPSM [RQApSIELPSM] | – | 0.0112 | IC50 [6]: 0.02 µM |
| RTF[pS]PTYGL [RTFpSPTYGL] | – | 0.0325 | – |
| GLLG[pS]PVRA [GLLGpSPVRA] | – | 0.169 | – |
| KMD[pS]FLDMQL [KMDpSFLDMQL] | – | 0.0034 | – |

Continued, in another order:

| IC50 [1] [µM] | IC50 [5] [µM] | Molecule | further results |
| --- | --- | --- | --- |
| 0.117 | – | CSCC[C@H](NC(=O)[C@@H]1CCCN1C(=O)CNC(=O)[C@H](COP(=O)(O)O)NC(=O)[C@H](Cc1ccc(O)cc1)NC(=O)[C@@H](NC(=O)[C@@H](N)CCCNC(=N)N)[C@@H](C)O)C(=O)N[C@@H](CC(N)=O)C(=O)N[C@@H](CCCCN)C(=O)N[C@H](C(=O)O)C(C)C [RTYpSGPMNKV] (H-RTY[pS]GPMNKV-OH) | – |
| 0.178 | – | CC(C)[C@H](NC(=O)CNC(=O)[C@H](CO)NC(=O)[C@@H](NC(=O)[C@@H]1CCCN1C(=O)[C@H](COP(=O)(O)O)NC(=O)[C@H](C)NC(=O)[C@@H](NC(=O)[C@@H](N)CCCNC(=N)N)C(C)C)[C@@H](C)O)C(=O)O [RVApSPTSGV] (H-RVA[pS]PTSGV-OH) | – |
| 0.146 | – | CC[C@H](C)[C@H](NC(=O)CNC(=O)[C@H](COP(=O)(O)O)NC(=O)[C@H](CC(=O)O)NC(=O)[C@H](CC(C)C)NC(=O)[C@@H](N)Cc1ccc(O)cc1)C(=O)N[C@@H](Cc1c[nH]cn1)C(=O)N[C@@H](CO)C(=O)NCC(=O)N[C@@H](C)C(=O)O [YLDpSGIHSGA] (H-YLD[pS]GIHSGA-OH) | – |
| – | 0.219 | GLLGSPVRA (not fully specified) [… (non-phosphorylated counterpart of GLLGpSPVRA)] | – |
| – | 0.146 | YLD[pS]GIHSGA [YLDpSGIHSGA] | – |
| – | 0.731 | RVASPTSGV (not fully specified) [… (non-phosphorylated counterpart of RVApSPTSGV)] | – |
| – | 0.408 | RTFSPTYGL (not fully specified) [… (non-phosphorylated counterpart of RTFpSPTYGL)] | – |
| – | 0.285 | RQASLSISV (not fully specified) [… (non-phosphorylated counterpart of RQApSLSISV)] | – |
| – | 0.102 | KLIDRTESL (not fully specified) [… (non-phosphorylated counterpart of KLIDRTEpSL)] | – |
| – | 0.117 | RTY[pS]GPMNKV [RTYpSGPMNKV] | – |
| – | 0.793 | RTYSGPMNKV (not fully specified) [… (non-phosphorylated counterpart of RTYpSGPMNKV)] | – |
| – | 0.178 | RVA[pS]PTSGV [RVApSPTSGV] | – |
| – | 0.0114 | KMDSFLDMQL (not fully specified) [… (non-phosphorylated counterpart of KMDpSFLDMQL)] | – |
| – | 0.0835 | YLDSGIHSGA (not fully specified) [… (non-phosphorylated counterpart of YLDpSGIHSGA)] | – |
